This experiment deals with TmCad1(EC12-cyto), partial Tenebrio molitor cadherin from extracellular domain 12 through the end of the cytoplasmic domain, expressed on insect cells (Tenebrio molitor). The experiment in a line: cell-based or functional assay.

With “Cry3Aa protoxin purified from sporulated cultures of Bacillus thuringiensis var. tenebrionis (from UniProt P0A379 1-644)”, the cytotoxicity (propidium iodide staining of GFP-positive transfected Hi5 cells, flow cytometry) worked out at 25% and the cytotoxicity (propidium iodide staining of GFP-positive transfected S2 cells, flow cytometry) is 40%.

Source of the values: patent US20090175974A1.
